The text below walks through data of patent US20200231640A1 (ANTIBIOTIC ALTERNATIVES, published 2020).

One assay concerns the target T1, S100A9 subunit (human, UniProt P06702 1-114).
T1 construct: Captured with anti-S100A9 from lysate of cells that also express S100A8, so it probably stood in the complex; also called MRP14; calgranulin B
T1 sequence (looked up): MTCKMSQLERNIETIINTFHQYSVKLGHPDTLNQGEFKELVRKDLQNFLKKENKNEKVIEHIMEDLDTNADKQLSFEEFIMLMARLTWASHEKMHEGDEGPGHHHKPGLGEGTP
Nature of the assay: immunofluorescence of mRNA-transfected KB cells with the heterodimer-specific antibody 27E10. The method, then:
After CAMP, S100A8/S100A9 mRNA transfection for 16 hours, cells were fixed with 4% paraformaldehyde for 10 minutes, washed with PBS (pH 7.4), and then permeabilized with 0.25% Triton X-100 for 10 minutes. After blocking one hour with 1% BSA in PBS/0.1% Tween 20 and rinsing 3× with PBS, cells were incubated with mouse anti-calprotectin (mAb 27E10, sc-33714, Santa Cruz Biotechnolology, Inc., Santa Cruz, Calif.) or mouse anti-LL37 (sc-166770, Santa Cruz Biotechnolology, Inc., Santa Cruz, Calif.) for one hour, followed by Alexa Fluor 568-conjugated goat anti-mouse IgG or Alexa Fluor 488-conjugated goat anti-rabbit IgG (Life Technologies Corp., Carlsbad, Calif.) for one hour. For EGFP mRNA transfection, no antibody incubation was needed. Nuclei were stained with DAPI. Fluorescence images were captured using an epifluorescence microscope system. A8-IRES-A9 and A8-nIRES-A9 mRNA transfection for 40 hours were also performed.

The target of a further assay is T2, Chk1 (human, UniProt O14757 1-476).
T2 construct: also called checkpoint kinase Chk1; p-Chk1 (Ser345)
T2 sequence (looked up): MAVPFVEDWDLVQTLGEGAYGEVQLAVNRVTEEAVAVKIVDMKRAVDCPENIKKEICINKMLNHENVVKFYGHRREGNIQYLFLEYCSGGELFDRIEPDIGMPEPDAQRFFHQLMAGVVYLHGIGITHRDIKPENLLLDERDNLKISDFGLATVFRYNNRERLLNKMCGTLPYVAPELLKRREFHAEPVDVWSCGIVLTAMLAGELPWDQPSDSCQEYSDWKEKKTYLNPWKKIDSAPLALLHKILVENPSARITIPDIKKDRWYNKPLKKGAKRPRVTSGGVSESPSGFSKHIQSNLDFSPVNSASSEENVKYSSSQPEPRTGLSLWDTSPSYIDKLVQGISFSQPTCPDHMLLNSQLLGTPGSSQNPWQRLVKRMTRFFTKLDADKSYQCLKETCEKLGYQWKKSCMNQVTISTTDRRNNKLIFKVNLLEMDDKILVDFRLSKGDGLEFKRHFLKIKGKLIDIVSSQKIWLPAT
Nature of the assay: co-immunoprecipitation from cell lysate.

B1: S100A8 (other, human, UniProt P05109 1-93, looked up)
chain: MLTELEKALNSIIDVYHKYSLIKGNFHAVYRDDLKKLLETECPQYIRKKGADVWFKELDINTDGAVNFQEFLILVIKMGVAAHKKSHEESHKE
notes: Expressed in KB cells from transfected mRNA; also called MRP8; calgranulin A
Regarding B1, the binding result with S100A9 subunit was “binds”.

B2: S100A8/A9 protein complex (calprotectin; S100A8 complexed with S100A9) (other, human)
chain 1: MLTELEKALNSIIDVYHKYSLIKGNFHAVYRDDLKKLLETECPQYIRKKGADVWFKELDINTDGAVNFQEFLILVIKMGVAAHKKSHEESHKE
chain 2: MTCKMSQLERNIETIINTFHQYSVKLGHPDTLNQGEFKELVRKDLQNFLKKENKNEKVIEHIMEDLDTNADKQLSFEEFIMLMARLTWASHEKMHEGDEGPGHHHKPGLGEGTP
notes: Cytosolic complex in lysates of stably transfected KB-S100A8/A9 cells (co-immunoprecipitation), or in mRNA-transfected KB cells (immunofluorescence); also called S100A8/S100A9 heterodimer; MRP8/14
In the case of B2, the binding result in the assay with Chk1 is on record as “no binding”.
